Experiment [1] deals with human IR-A ECD construct (residues 1-917) (human). The experiment can be described thus: cryo-EM structure.
The target in experiment [2] is IR-A in cell membranes of human IM-9 lymphocytes (human (endogenous in IM-9)) (UniProt P06213). The experiment can be described thus: radioligand binding.

S661 peptide: the stoichiometry N (per IR-ECD dimer) in experiment [1] amounted to 2. This substance also came in with a Kd in experiment [2] of 2.6 nM.

What is called Kd is the free concentration of one partner at which half of the binding sites on the other are occupied at equilibrium, for simple one-to-one binding.

The values are drawn from article doi:10.1101/2025.08.05.667158.
